# Laboratory results: FireProtDB (doi:10.1016/j.bpc.2006.10.013)
# B1: Rubredoxin wild type, P00268 (protein)
# chain: MKKYTCTVCGYIYNPEDGDPDNGVNPGTDFKDIPDDWVCPLCGVGKDQFEEVEE
# Conditions: Clostridium pasteurianum; pH 9.08; Thermal; NMR; Sodium borate 100 mM; reversible: Yes; whole UniProt chain shown
protein,measurement,value
B1,Tm,107 °C
same,heat capacity change of unfolding,0.5 kcal/mol/K
same,unfolding enthalpy (van 't Hoff),62 kcal/mol
